# Data: the supplement of paper PMC9112550, “Optimization of the antimicrobial peptide Bac7 by deep mutational scanning” (BMC Biology, 2022)
# Tested on: Escherichia coli TOP10
# Test: shrunken log2 fold change of peptide-encoding DNA abundance (4.5 h post-induction vs induction); higher = less antimicrobial activity (less host growth inhibition)
# Conditions: time post-induction: 4.5 h; library: site-saturation at positions 5, 18, 19, 20
# 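Note: peptides expressed intracellularly from a pBAD plasmid library in pooled LB shake-flask culture, induced with 0.3% L-arabinose, DNA abundance read by NGS, three biological replicates, DESeq2 with apeglm shrinkage.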
row,Sequence,shrunken log2 fold change
1,RRIRTRPPRLPRPRPRPALNPRP,-0.0937
2,RRIRRRPPRLPRPRPRPMPNPRP,0.129
3,RRIRHRPPRLPRPRPRPGFIPRP,0.043
4,RRIRDRPPRLPRPRPRPIIRPRP,-0.0604
5,RRIRPRPPRLPRPRPRPHHWPRP,-0.103
6,RRIRYRPPRLPRPRPRPLWKPRP,-0.0695
7,RRIRRRPPRLPRPRPRPSIDPRP,-0.107
8,RRIRGRPPRLPRPRPRPMAHPRP,0.63
9,RRIRDRPPRLPRPRPRPAIPPRP,-0.538
10,RRIRCRPPRLPRPRPRPYMCPRP,-0.233
11,RRIRRRPPRLPRPRPRPWFHPRP,0.0067
12,RRIRGRPPRLPRPRPRPFNAPRP,-0.132
13,RRIRQRPPRLPRPRPRPNFGPRP,-0.0871
14,RRIRIRPPRLPRPRPRPWLWPRP,-0.0533
15,RRIRHRPPRLPRPRPRPTYAPRP,-0.127
16,RRIRIRPPRLPRPRPRPRTLPRP,-0.259
17,RRIRKRPPRLPRPRPRPYGWPRP,0.05
18,RRIRFRPPRLPRPRPRPQQSPRP,-0.0219
19,RRIRMRPPRLPRPRPRPHEAPRP,0.0628
20,RRIRVRPPRLPRPRPRPESEPRP,0.0921
21,RRIRVRPPRLPRPRPRPVECPRP,-0.286
22,RRIRGRPPRLPRPRPRPAFSPRP,0.0169

row,Sequence,shrunken log2 fold change
1,RRIRYRPPRLPRPRPRPPQTPRP,-0.314
2,RRIRRRPPRLPRPRPRPMQGPRP,0.031
3,RRIRWRPPRLPRPRPRPHKSPRP,0.0767
4,RRIRSRPPRLPRPRPRPSKDPRP,-0.61
5,RRIRCRPPRLPRPRPRPWFLPRP,-0.479
6,RRIRGRPPRLPRPRPRPCMCPRP,0.263
7,RRIRGRPPRLPRPRPRPMNWPRP,0.179
8,RRIRLRPPRLPRPRPRPDGYPRP,0.0385
9,RRIRYRPPRLPRPRPRPGVNPRP,-3.04
10,RRIRFRPPRLPRPRPRPMNFPRP,-0.283
11,RRIRPRPPRLPRPRPRPQHWPRP,0.265
12,RRIRKRPPRLPRPRPRPYIRPRP,-0.018
13,RRIRRRPPRLPRPRPRPSETPRP,0.493
14,RRIRSRPPRLPRPRPRPAGRPRP,0.287
15,RRIRGRPPRLPRPRPRPFNEPRP,-0.231
16,RRIRRRPPRLPRPRPRPSGTPRP,0.494
17,RRIRIRPPRLPRPRPRPCYQPRP,-0.44
18,RRIRYRPPRLPRPRPRPGMWPRP,0.234
19,RRIRTRPPRLPRPRPRPSEYPRP,-0.0517
20,RRIRRRPPRLPRPRPRPCHGPRP,-0.589
21,RRIRQRPPRLPRPRPRPKMYPRP,-0.544
22,RRIRHRPPRLPRPRPRPFWDPRP,-0.0244

row,Sequence,shrunken log2 fold change
1,RRIRWRPPRLPRPRPRPHIWPRP,-0.131
2,RRIRWRPPRLPRPRPRPGAYPRP,0.109
3,RRIRVRPPRLPRPRPRPKFYPRP,-0.46
4,RRIRIRPPRLPRPRPRPAYVPRP,-0.354
5,RRIRLRPPRLPRPRPRPETAPRP,0.325
6,RRIRERPPRLPRPRPRPKLSPRP,-0.173
7,RRIRLRPPRLPRPRPRPHLRPRP,-0.151
8,RRIRWRPPRLPRPRPRPWVKPRP,-0.00207
9,RRIRNRPPRLPRPRPRPDQSPRP,0.00307
10,RRIRERPPRLPRPRPRPDWEPRP,0.368
11,RRIRARPPRLPRPRPRPKMKPRP,0.131
12,RRIRNRPPRLPRPRPRPEYPPRP,-0.243
13,RRIRHRPPRLPRPRPRPVWLPRP,-0.0368
14,RRIRPRPPRLPRPRPRPKTPPRP,0.0677
15,RRIRWRPPRLPRPRPRPDGCPRP,0.0109
16,RRIRFRPPRLPRPRPRPFIWPRP,-0.312
17,RRIRPRPPRLPRPRPRPSLHPRP,-0.21
18,RRIRRRPPRLPRPRPRPQKQPRP,0.338
19,RRIRPRPPRLPRPRPRPDISPRP,0.0683
20,RRIRIRPPRLPRPRPRPTLSPRP,-0.0751
21,RRIRMRPPRLPRPRPRPWRPPRP,0.308
22,RRIRGRPPRLPRPRPRPGGCPRP,1.19

row,Sequence,shrunken log2 fold change
1,RRIRQRPPRLPRPRPRPQTNPRP,-0.736
2,RRIRDRPPRLPRPRPRPRWEPRP,-0.0171
3,RRIRWRPPRLPRPRPRPAEYPRP,0.101
4,RRIRLRPPRLPRPRPRPVHKPRP,-0.256
5,RRIRARPPRLPRPRPRPEDTPRP,0.625
6,RRIRCRPPRLPRPRPRPQTCPRP,0.034
7,RRIRQRPPRLPRPRPRPPMKPRP,0.00136
8,RRIRRRPPRLPRPRPRPVSKPRP,0.24
9,RRIRKRPPRLPRPRPRPSKNPRP,0.219
10,RRIRGRPPRLPRPRPRPATDPRP,0.531
11,RRIRARPPRLPRPRPRPVIFPRP,0.0535
12,RRIRDRPPRLPRPRPRPMGPPRP,-0.00107
13,RRIRKRPPRLPRPRPRPAMFPRP,0.337
14,RRIRSRPPRLPRPRPRPSETPRP,-0.44
15,RRIRARPPRLPRPRPRPYDLPRP,0.0526
16,RRIRMRPPRLPRPRPRPSDTPRP,0.232
17,RRIRDRPPRLPRPRPRPVGRPRP,0.301
18,RRIRCRPPRLPRPRPRPLSTPRP,-0.229
19,RRIRMRPPRLPRPRPRPNGTPRP,0.0915
20,RRIRKRPPRLPRPRPRPLGEPRP,0.445
21,RRIRLRPPRLPRPRPRPITKPRP,0.00247
22,RRIRQRPPRLPRPRPRPDPAPRP,0.0492

row,Sequence,shrunken log2 fold change
1,RRIRWRPPRLPRPRPRPAPQPRP,0.743
2,RRIRMRPPRLPRPRPRPREEPRP,1.41
3,RRIRARPPRLPRPRPRPVTFPRP,0.0573
4,RRIRMRPPRLPRPRPRPEPHPRP,1.43
5,RRIRVRPPRLPRPRPRPMLTPRP,-0.066
6,RRIRARPPRLPRPRPRPNVAPRP,0.477
7,RRIRHRPPRLPRPRPRPINGPRP,-0.437
8,RRIRYRPPRLPRPRPRPKEMPRP,-0.259
9,RRIRWRPPRLPRPRPRPQYEPRP,0.0857
10,RRIRHRPPRLPRPRPRPIDFPRP,0.0271
11,RRIRWRPPRLPRPRPRPHRHPRP,-0.131
12,RRIRYRPPRLPRPRPRPVHFPRP,-0.451
13,RRIRERPPRLPRPRPRPVETPRP,-0.02
14,RRIRCRPPRLPRPRPRPYVYPRP,-0.834
15,RRIRMRPPRLPRPRPRPHHNPRP,-0.533
16,RRIRIRPPRLPRPRPRPNQFPRP,-0.0326
17,RRIRCRPPRLPRPRPRPAQSPRP,0.345
18,RRIRGRPPRLPRPRPRPTGQPRP,0.793
19,RRIRIRPPRLPRPRPRPEHPPRP,-0.182
20,RRIRERPPRLPRPRPRPIKMPRP,-0.347
21,RRIRFRPPRLPRPRPRPGLTPRP,-0.143
